Drawing on publication PMC11257983 (2024), this text covers ratio to parent for five variants.

B1: Flag-CNK^2–549 [Drosophila] / Myc-MEK [Drosophila] (parent)
chain 1: MSKNKLNLVLPPVNTEATVAAATVAPTPPFKTPSGTDTHSLLGKPKTSIDALTETLEGLDMGDTERKRIKMFLSQKEKIGELSDEDLEKLGELGSGNGGVVMKVRHTHTHLIMARKLIHLEVKPAIKKQILRELKVLHECNFPHIVGFYGAFYSDGEISICMEYMDGGSLDLILKRAGRIPESILGRITLAVLKGLSYLRDNHAIIHRDVKPSNILVNSSGEIKICDFGVSGQLIDSMANSFVGTRSYMSPERLQGTHYSVQSDIWSLGLSLVEMAIGMYPIPPPNTATLESIFADNAEESGQPTDEPRAMAIFELLDYIVNEPPPKLEHKIFSTEFKDFVDICLKKQPDERADLKTLLSHPWIRKAELEEVDISGWVCKTMDLPPSTPKRNTSPN
chain 2: AYINIAEWTPDQVTDWIKGLDESMKGYLYEFSKQEIGGRALLNIRPYELENLGMLRIGHQEIVLEAVENLRNFHYHLKNDNLQFMALHVATAAKNLHRELARNHAESTKIDTRILHDITRTIATLKPLVGSLERTPFRKQEMYREYCGNVLKCGLELATIAHRDRFALQPVPAIRQSAERLENLANFVIQDISDPMVLQPASLNLVTLKKRESELGFNIESSYNGIHRVTDIKYNSPAHNSGKIEDGDEIVQINYQTVVGWQHRTVLEHLREALPDVVLTVKKRPKHTKMFGQIYMQPYRLPSKKRNMAARWAAQMPSPRAAFLTLDTEQLATGGTGSAVPDPSKSLSSEKREVLTKANPVSSASDSDSSCSDIPTPTDPKLAAREIRLYYPKPRALLQRRNTICGCEYLSLKNSDLVVPSWHERKPGIGSPTNCDPGSPSIRDKSISFGYGLEMAARPTTCIGIAGDTSTDKARRMFHEARKLKQLTEDSQREFLVDRYKPGVSKVVRFDAKEDYVMKNEKFICNVENTILETFEPIPFADEGDEDA

In one test the parent is B1. The test is described as follows: GST pull-down, immunoblot quantification. To be noted: with Myc-MEK [Drosophila], S2 cells, Flag-CNK2–549, V5-KSR, GST-HYP co-expressed, captured via GST-HYP, anti-Myc (MEK) blot, parent: 1. On the technique in general: In western blotting, separated proteins are transferred to a membrane and probed.
Turning to chain 2 AYINIAEWTPDQVTDWIKGLDESMKGYLYEFSKQEIGGRALLNIRPYELENLGMLRIGHQEIVLEAVENLRNFHRHLKNDNLQFMALHVATAAKNLHRELARNHAESTKIDTRILHDITRTIATLKPLVGSLERTPFRKQEMYREYCGNVLKCGLELATIAHRDRFALQPVPAIRQSAERLENLANFVIQDISDPMVLQPASLNLVTLKKRESELGFNIESSYNGIHRVTDIKYNSPAHNSGKIEDGDEIVQINYQTVVGWQHRTVLEHLREALPDVVLTVKKRPKHTKMFGQIYMQPYRLPSKKRNMAARWAAQMPSPRAAFLTLDTEQLATGGTGSAVPDPSKSLSSEKREVLTKANPVSSASDSDSSCSDIPTPTDPKLAAREIRLYYPKPRALLQRRNTICGCEYLSLKNSDLVVPSWHERKPGIGSPTNCDPGSPSIRDKSISFGYGLEMAARPTTCIGIAGDTSTDKARRMFHEARKLKQLTEDSQREFLVDRYKPGVSKVVRFDAKEDYVMKNEKFICNVENTILETFEPIPFADEGDEDA [chain 2 Y75R], the ratio to parent came out at 0.68.

For the variant chain 2 AYINIAEWTPDQVTDWIKGLDESMKGYLYEFSKQEIGGRALLNIFPYELENLGMLRIGHQEIVLEAVENLRNFHYHLKNDNLQFMALHVATAAKNLHRELARNHAESTKIDTRILHDITRTIATLKPLVGSLERTPFRKQEMYREYCGNVLKCGLELATIAHRDRFALQPVPAIRQSAERLENLANFVIQDISDPMVLQPASLNLVTLKKRESELGFNIESSYNGIHRVTDIKYNSPAHNSGKIEDGDEIVQINYQTVVGWQHRTVLEHLREALPDVVLTVKKRPKHTKMFGQIYMQPYRLPSKKRNMAARWAAQMPSPRAAFLTLDTEQLATGGTGSAVPDPSKSLSSEKREVLTKANPVSSASDSDSSCSDIPTPTDPKLAAREIRLYYPKPRALLQRRNTICGCEYLSLKNSDLVVPSWHERKPGIGSPTNCDPGSPSIRDKSISFGYGLEMAARPTTCIGIAGDTSTDKARRMFHEARKLKQLTEDSQREFLVDRYKPGVSKVVRFDAKEDYVMKNEKFICNVENTILETFEPIPFADEGDEDA [chain 2 R45F], the ratio to parent stood at 1.01.

For the variant chain 2 AYINIAEWTPDQVTDWIKGLDESMKGYLYEFSKQEIGGRALLNIRPYELENLGMLRIGHQEIVLEAVENLRNFHYHLKNDNLEFMALHVATAAKNLHRELARNHAESTKIDTRILHDITRTIATLKPLVGSLERTPFRKQEMYREYCGNVLKCGLELATIAHRDRFALQPVPAIRQSAERLENLANFVIQDISDPMVLQPASLNLVTLKKRESELGFNIESSYNGIHRVTDIKYNSPAHNSGKIEDGDEIVQINYQTVVGWQHRTVLEHLREALPDVVLTVKKRPKHTKMFGQIYMQPYRLPSKKRNMAARWAAQMPSPRAAFLTLDTEQLATGGTGSAVPDPSKSLSSEKREVLTKANPVSSASDSDSSCSDIPTPTDPKLAAREIRLYYPKPRALLQRRNTICGCEYLSLKNSDLVVPSWHERKPGIGSPTNCDPGSPSIRDKSISFGYGLEMAARPTTCIGIAGDTSTDKARRMFHEARKLKQLTEDSQREFLVDRYKPGVSKVVRFDAKEDYVMKNEKFICNVENTILETFEPIPFADEGDEDA [chain 2 Q83E], the ratio to parent amounted to 0.04.

Still in this test, the particulars now being: with Myc-MEK [Drosophila]; S2 cells; GST-HYP + RRKM (Ha-RASV12, Pyo-RAF, V5-KSR, Myc-MEK) co-expressed; captured via GST-HYP; anti-MEK blot; parent: 1.
Take chain 2 AYINIAEWTPDQVTDWIKGLDESMKGYLYEFSKQEIGGRALLNIRPYELENLGMLRIGHQEIVLEAVENLRNFHYHLKNDNLQFMALHVATAAKNLHRELARNHAESTKIDTRILHDITRTIATLKPLVGSLERTPFRKQEMYREYCGNVLKCGLELATIAHRDRFALQPVPAIRQSAERLENLANFVIQDISDPEVLQPASLNLVTLKKRESELGFNIESSYNGIHRVTDIKYNSPAHNSGKIEDGDEIVQINYQTVVGWQHRTVLEHLREALPDVVLTVKKRPKHTKMFGQIYMQPYRLPSKKRNMAARWAAQMPSPRAAFLTLDTEQLATGGTGSAVPDPSKSLSSEKREVLTKANPVSSASDSDSSCSDIPTPTDPKLAAREIRLYYPKPRALLQRRNTICGCEYLSLKNSDLVVPSWHERKPGIGSPTNCDPGSPSIRDKSISFGYGLEMAARPTTCIGIAGDTSTDKARRMFHEARKLKQLTEDSQREFLVDRYKPGVSKVVRFDAKEDYVMKNEKFICNVENTILETFEPIPFADEGDEDA [chain 2 M196E]: the ratio to parent amounted to 0.28.

chain 2 AYINIAEWTPDQVTDWIKGLDESMKGYLYEFSKQEIGGRALLNIRPYELENLGMLRIGHQEIVLEAVENLRNFHYHLKNDNLQFMALHVATAAKNLHRELARNHAESTKIDTRILHDITRTIATLKPLVGSLERTPFRKQEMYREYCGNVLKCGLELATIAHRDRFALQPVPAIRQSAERLENLANFVIQDIADPMVLQPASLNLVTLKKRESELGFNIESSYNGIHRVTDIKYNSPAHNSGKIEDGDEIVQINYQTVVGWQHRTVLEHLREALPDVVLTVKKRPKHTKMFGQIYMQPYRLPSKKRNMAARWAAQMPSPRAAFLTLDTEQLATGGTGSAVPDPSKSLSSEKREVLTKANPVSSASDSDSSCSDIPTPTDPKLAAREIRLYYPKPRALLQRRNTICGCEYLSLKNSDLVVPSWHERKPGIGSPTNCDPGSPSIRDKSISFGYGLEMAARPTTCIGIAGDTSTDKARRMFHEARKLKQLTEDSQREFLVDRYKPGVSKVVRFDAKEDYVMKNEKFICNVENTILETFEPIPFADEGDEDA [chain 2 S193A]: the ratio to parent came out at 1.01.

Still in this test, the particulars now being: with Myc-MEK [Drosophila]; S2 cells; GST-HYP, V5-KSR, Myc-MEK co-expressed; captured via GST-HYP; anti-MEK blot; parent: 1.
On to chain 2 AYINIAEWTPDQVTDWIKGLDESMKGYLYEFSKQEIGGRALLNIRPYELENLGMLRIGHQEIVLEAVENLRNFHYHLKNDNLQFMALHVATAAKNLHRELARNHAESTKIDTRILHDITRTIATLKPLVGSLERTPFRKQEMYREYCGNVLKCGLELATIAHRDRFALQPVPAIRQSAERLENLANFVIQDISDPEVLQPASLNLVTLKKRESELGFNIESSYNGIHRVTDIKYNSPAHNSGKIEDGDEIVQINYQTVVGWQHRTVLEHLREALPDVVLTVKKRPKHTKMFGQIYMQPYRLPSKKRNMAARWAAQMPSPRAAFLTLDTEQLATGGTGSAVPDPSKSLSSEKREVLTKANPVSSASDSDSSCSDIPTPTDPKLAAREIRLYYPKPRALLQRRNTICGCEYLSLKNSDLVVPSWHERKPGIGSPTNCDPGSPSIRDKSISFGYGLEMAARPTTCIGIAGDTSTDKARRMFHEARKLKQLTEDSQREFLVDRYKPGVSKVVRFDAKEDYVMKNEKFICNVENTILETFEPIPFADEGDEDA [chain 2 M196E], for which the ratio to parent was found to be 0.23.

Consider chain 2 AYINIAEWTPDQVTDWIKGLDESMKGYLYEFSKQEIGGRALLNIRPYELENLGMLRIGHQEIVLEAVENLRNFHYHLKNDNLQFMALHVATAAKNLHRELARNHAESTKIDTRILHDITRTIATLKPLVGSLERTPFRKQEMYREYCGNVLKCGLELATIAHRDRFALQPVPAIRQSAERLENLANFVIQDIADPMVLQPASLNLVTLKKRESELGFNIESSYNGIHRVTDIKYNSPAHNSGKIEDGDEIVQINYQTVVGWQHRTVLEHLREALPDVVLTVKKRPKHTKMFGQIYMQPYRLPSKKRNMAARWAAQMPSPRAAFLTLDTEQLATGGTGSAVPDPSKSLSSEKREVLTKANPVSSASDSDSSCSDIPTPTDPKLAAREIRLYYPKPRALLQRRNTICGCEYLSLKNSDLVVPSWHERKPGIGSPTNCDPGSPSIRDKSISFGYGLEMAARPTTCIGIAGDTSTDKARRMFHEARKLKQLTEDSQREFLVDRYKPGVSKVVRFDAKEDYVMKNEKFICNVENTILETFEPIPFADEGDEDA [chain 2 S193A], for which the ratio to parent was 1.09.
